Experimental data reported in paper PMC3503730, “Enhanced thermostability of a Rhizopus chinensis lipase by in vivo recombination in Pichia pastoris” (Microbial Cell Factories, 2012).

Substrate: CCCCCCCCCCCCCCCC(=O)Oc1ccc([N+](=O)[O-])cc1
Assay: p-nitrophenol release, Lineweaver-Burk
Type: biochemical, Rhizopus microsporus
Settings: emulsified substrate, 40°C, pH 8.5, printed Km unit is a misprint, printed kcat/Km 6.22 × 10^4 M^-1 s^-1 implies mM
Text: p-nitrophenol release, Lineweaver-Burk on r27RCL

B1: r27RCL (Rhizopus microsporus var. chinensis) (protein)
chain: DTETVGGMTLDLPENPPPIPATSTAPSSDSGEVVTATAAQIKELTNYAGVAATAYCRSVVPGTKWDCKQCLKYVPDGKLIKTFTSLLTDTNGFILRSDAQKTIYVTFRGTNSFRSAITDMVFTFTDYSPVKGAKVHAGFLSSYNQVVKDYFPVVQDQLTAYPDYKVIVTGHSLGGAQALLAGMDLYQREKRLSPKNLSIYTVGCPRVGNNAFAYYVDSTGIPFHRTVHKRDIVPHVPPQAFGYLHPGVESWIKEDPADVQICTSNIETKQCSNSIVPFTSIADHLTYFGINEGSCL
notes: proRCL gene in pPIC9K, secreted from Pichia pastoris GS115, purified on SP-Sepharose and Phenyl-Sepharose
- kcat: 18.9 s⁻¹
- kcat/Km: 62200 M⁻¹ s⁻¹
